In patent publication US20250114467A1 (SHANGHAI FUDAN ZHANGJIANG BIO PHARMACEUTICAL, published 2025):

Molecular target: T1, mouse DLL3 on overexpressing cells (plasmid pCMV3-mDLL3, MG58052-UT) (mouse, UniProt O88516 33-592)
T1 construct: whole, on cells
T1 sequence (looked up): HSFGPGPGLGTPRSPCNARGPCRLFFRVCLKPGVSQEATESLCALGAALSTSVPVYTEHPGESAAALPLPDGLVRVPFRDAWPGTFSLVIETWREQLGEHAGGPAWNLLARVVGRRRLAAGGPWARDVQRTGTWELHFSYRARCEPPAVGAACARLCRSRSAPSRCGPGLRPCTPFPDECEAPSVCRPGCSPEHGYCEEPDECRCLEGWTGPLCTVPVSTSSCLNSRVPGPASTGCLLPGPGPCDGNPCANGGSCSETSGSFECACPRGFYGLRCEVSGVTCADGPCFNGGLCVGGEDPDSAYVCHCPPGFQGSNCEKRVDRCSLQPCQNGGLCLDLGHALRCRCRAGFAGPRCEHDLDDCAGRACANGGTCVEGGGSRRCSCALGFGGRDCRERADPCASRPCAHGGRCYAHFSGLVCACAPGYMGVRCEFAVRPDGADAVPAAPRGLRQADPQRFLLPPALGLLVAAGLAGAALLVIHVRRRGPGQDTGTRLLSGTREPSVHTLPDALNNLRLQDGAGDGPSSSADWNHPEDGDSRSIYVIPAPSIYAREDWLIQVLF
Experiment: flow cytometry on cells overexpressing mouse DLL3, APC goat anti-human IgG, MFI [left panel]
Experimental: After washing with 80 μl of PBST (0.1% Tween20) for five times, 25 μl of HRP-labeled goat anti-human secondary antibody (Jackson, 1:10000) was added to each well and incubated at room temperature for 1 hour, discard the supernatant, and the wells were then washed seven times with 80 μl of PBST (0.1% Tween20). After adding 25 μl of TMB chromogen solution for 10 minutes, the reaction was terminated with 2M HCl, and the absorbance value at 450 nm was measured with a Microplate reader (purchased from Biotek, Elx808). […] The binding abilities of the chimeric antibodies to these cells were determined by flow cytometry to assess the cross-reactivity of the antibodies with different species. […] The chimeric antibodies, FDA027, and FDA031 were pre-diluted to 50 μg/ml, and further diluted in a 4-fold gradient across 8 concentration points, with 200 μL of the antibodies to be detected of different concentrations added to each well and incubated on ice for 30 minutes. […] After washing with PBS four times, 100 μL PBS was added to each well to resuspend the cells, which were then analyzed using CytoFLEX (Beckman).

B1: ch32E8 (antibody, human IgG1, kappa, V domains shown)
VH: QVTLKESGPGILQPSQTLSLTCSFSGFSLSTSGMGVGWIRQPSGKGLEWLALIWWDDVKRYHPALKSRLTISKDTSSSQVFLKIASVDTADTATYYCARIAEVTGQVGLHYAMDYWGQGTSVTVSS
VL: QTVLTQSPAIMSASLGERVTMTCTASSSVNSSSLHWYQQKPGSSPKLWIYTTSNLASGVPARFSGSGSGTSYSLTISSMEAEDAATYYCHQFHRSPFTFGSGTKLEIKR
notes: Chimeric: murine variable regions on human IgG1 heavy and kappa light constant regions; also called chimeric antibody 32E8
- binding result: no binding (tested: 50 µg/ml)

B2: ch15G2 (antibody, human IgG1, kappa, V domains shown)
VH: EVQLQQSGPELEKPGASVRISCKASGYSFTDYNMHWVKQSNGKSLEWIGNIDPYYGGTNYNQKFEGKATLTVDKSSSTAYMQLKSLTSEDSAVYYCARGGNNYGDYWGQGTTLTVSS
VL: DIQMTQSPASLAASVGETVTITCRASENIYYSLAWYQQKQGKSPQLLIFNANSLEDGVPSRFSGSGSGTQYSMKINSMQPEDTATYFCKQAYDVPWTFGGGTKLEIKR
notes: Chimeric: murine variable regions on human IgG1 heavy and kappa light constant regions; also called chimeric antibody 15G2
- binding result: no binding (tested: 50 µg/ml)
